Reference: patent US20260167721A1 (ABLEXIS, published 2026)

Assays:
[1] = target: CD3 on effector cells (human Pan-T or PBMC) (human, UniProt P07766 23-207; P04234 22-171; P09693 23-182; P20963 22-164); assay: cell-based or functional assay
[2] = target: recombinant CD3 proteins; assay: Octet (BLI), bispecific antibody against recombinant CD3 proteins; Full R^2 0.00
[3] = target: recombinant CD3 proteins; assay: Octet (BLI), bispecific antibody against recombinant CD3 proteins
[4] = target: T1, recombinant human CD3 epsilon/delta heterodimer (human, UniProt P07766 23-126; P04234 22-105); assay: Octet BLI, mAb on FAB2G sensor, hCD3 E/D 200-50 nM; R^2 0.98;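 also: antibodies purified from hybridoma supernatants, measured by Octet binding to recombinant human CD3 protein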
T1 construct: Recombinant protein in solution (200-50 nM) in the Octet assay; also called hCD3 E/D; human CD3E/D
T1 sequence (P07766 23-126, stated change not applied, chain 1 of 2): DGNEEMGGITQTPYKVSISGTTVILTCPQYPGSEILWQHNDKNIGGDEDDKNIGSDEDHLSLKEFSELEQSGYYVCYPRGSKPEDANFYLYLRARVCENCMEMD
T1 sequence (P04234 22-105, stated change not applied, chain 2 of 2): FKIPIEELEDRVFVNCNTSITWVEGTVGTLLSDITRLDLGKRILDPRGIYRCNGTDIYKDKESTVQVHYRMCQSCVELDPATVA

[5] = target: T2, recombinant human CD3 epsilon/gamma heterodimer (human, UniProt P07766 23-126; P09693 23-116); assay: Octet BLI, mAb on FAB2G sensor, hCD3 E/G 200-50 nM; R^2 0.90
T2 construct: Recombinant protein in solution (200-50 nM) in the Octet assay; also called hCD3 E/G
T2 sequence (P07766 23-126, chain 1 of 2): as the sequence (P07766 23-126, stated change not applied, chain 1 of 2) above
T2 sequence (P09693 23-116, chain 2 of 2): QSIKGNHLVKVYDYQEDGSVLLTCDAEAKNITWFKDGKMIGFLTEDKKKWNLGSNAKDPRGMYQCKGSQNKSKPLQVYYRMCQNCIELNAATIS

Chain of CD3 on effector cells (human Pan-T or PBMC) (P07766 23-207, chain 1 of 4): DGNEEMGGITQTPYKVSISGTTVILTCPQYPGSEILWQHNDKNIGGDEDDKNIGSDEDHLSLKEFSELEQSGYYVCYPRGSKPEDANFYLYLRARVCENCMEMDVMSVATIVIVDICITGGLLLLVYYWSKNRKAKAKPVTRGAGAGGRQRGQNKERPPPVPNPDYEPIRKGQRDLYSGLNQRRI
Chain of CD3 on effector cells (human Pan-T or PBMC) (P04234 22-171, chain 2 of 4): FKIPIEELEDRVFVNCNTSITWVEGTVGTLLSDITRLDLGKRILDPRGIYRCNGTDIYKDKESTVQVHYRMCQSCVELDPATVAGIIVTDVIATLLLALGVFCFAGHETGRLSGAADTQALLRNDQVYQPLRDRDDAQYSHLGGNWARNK
Chain of CD3 on effector cells (human Pan-T or PBMC) (P09693 23-182, chain 3 of 4): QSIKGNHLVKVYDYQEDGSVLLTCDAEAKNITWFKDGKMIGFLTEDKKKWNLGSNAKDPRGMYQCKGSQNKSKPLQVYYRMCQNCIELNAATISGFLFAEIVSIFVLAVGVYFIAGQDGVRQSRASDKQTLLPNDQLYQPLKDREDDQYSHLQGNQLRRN
Chain of CD3 on effector cells (human Pan-T or PBMC) (P20963 22-164, chain 4 of 4): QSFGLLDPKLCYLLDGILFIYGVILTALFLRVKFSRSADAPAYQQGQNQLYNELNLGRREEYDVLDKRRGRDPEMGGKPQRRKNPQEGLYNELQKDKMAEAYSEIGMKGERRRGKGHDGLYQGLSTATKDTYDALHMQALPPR

B1: CD3 × CD33-BspAb66 (bispecific antibody, human IgG1, kappa)
scFv: EVQLVESGGGLVQPGRSLRLSCAASGFTFDDYAMHWVRQAPGKGLEWVSGISWNSGSIGYADSVKGRFTISRDNAKNSLYLQMNSLRAEDTALYYCAKDSRGYGDYRLGGAYWGQGTLVTVSSGGGGSGGGGSGGGGSGGGGSEIVMTQSPATLSVSPGERATLSCRASQSVSSNLAWYQQKPGQAPRLLIYGASTRATGIPARFSGSGSGTEFTLTISSLQSEDFAVYYCQQYNNWPWTFGQGTKVEIKTSGPGGPDKTHTCPPCPAPEFEGGPSVFLFPPKPKDTLMISRTPEVTCVVVDVSHEDPEVKFNWYVDGVEVHNAKTKPREEQYNSTYRVVSVLTVLHQDWLNGKEYKCKVSNKALPASIEKTISKAKGQPREPQVYTLPPCREEMTKNQVSLWCLVKGFYPSDIAVEWESNGQPENNYKTTPPVLDSDGSFFLYSKLTVDKSRWQQGNVFSCSVMHEALHNHYTQKSLSLSPGK
heavy: EVQLVQSGAEVKKPGSSVKVSCKASGYTITDSNIHWVRQAPGQSLEWIGYIYPYNGGTDYNQKFKNRATLTVDNPTNTAYMELSSLRSEDTAFYYCVNGNPWLAYWGQGTLVTVSSASTKGPSVFPLAPSSKSTSGGTAALGCLVKDYFPEPVTVSWNSGALTSGVHTFPAVLQSSGLYSLSSVVTVPSSSLGTQTYICNVNHKPSNTKVDKRVEPKSCDKTHTCPPCPAPEFEGGPSVFLFPPKPKDTLMISRTPEVTCVVVDVSHEDPEVKFNWYVDGVEVHNAKTKPREEQYNSTYRVVSVLTVLHQDWLNGKEYKCKVSNKALPASIEKTISKAKGQPREPQVCTLPPSREEMTKNQVSLSCAVKGFYPSDIAVEWESNGQPENNYKTTPPVLDSDGSFFLVSKLTVDKSRWQQGNVFSCSVMHEALHNRFTQKSLSLSPGK
light: DIQLTQSPSTLSASVGDRVTITCRASESLDNYGIRFLTWFQQKPGKAPKLLMYAASNQGSGVPSRFSGSGSGTEFTLTISSLQPDDFATYYCQQTKEVPWSFGQGTKVEVKRTVAAPSVFIFPPSDEQLKSGTASVVCLLNNFYPREAKVQWKVDNALQSGNSQESVTEQDSKDSTYSLSSTLTLSKADYEKHKVYACEVTHQGLSSPVTKSFNRGEC
notes: also called CD3δε-specific control antibody scFv-Fc knob/TM; CD3xCD33-BspAb66
- RTCC EC50 (nM), KILR HL-60 T Cell Redirection cytotoxic assay with CD33-expressing target cells [1]: 25.4 nM
- Kd [2]: 0.854 nM
- koff [2]: 1.07e-05 s⁻¹
- kon [2]: 12500 M⁻¹ s⁻¹
- Response [3]: 0.03

B2: ABL-CD3-44 (antibody, V domains shown)
VH: EVQLVESGGGLVQPGGSLRLSCAASGFTFSTYWMSWVRQAPGKGLEWVANIKQDGSEKYYVDSVKGRFTISRDNAKNSLYLQMNSLRAEDTAVYYCATGSFDYWGQGTLVTVSS
VL: QPVLTQPSSHSASSGASVRLTCMLSSGFSVGDFWIRWYQQKPGNPPRYLLFYHSDSNKGQGSGVPSRFSGSNDASANAGILRISGLQPEDEADYYCGTWHSNSKTWVFGGGTKLTVL
notes: Chimeric hybridoma mAb: human V, CH1, upper hinge; mouse middle hinge, CH2, CH3
- Kd [4]: 356 nM
- Response [4]: 0.03
- koff [4]: 0.000184 s⁻¹
- kon [4]: 517 M⁻¹ s⁻¹
- Kd [5]: < 0.001 nM
